{"source": "patent US9283300B2", "about": "“Use of midkine protein and the protein-containing medical device” (GENERAL REGENERATIVES, LTD, priority 2009, dated 2016)", "key": {"[1]": {"system": "cartilage of normal New Zealand rabbit (articular, ear, tracheal, intervertebral disc)", "assay": "rhMK effect on cartilage thickness of normal rabbits (subcutaneous injection, histology)", "format": "in vivo", "conditions": "rhMK 92.5 μg/kg s.c. daily for two weeks", "experimental": "Method. 8-weeks-old male C57BL/6J mice were injected subcutaneously with recombinant human MK (rhMK) or control saline. The injection volume was 0.5 ml, given daily for a week. The mice were grouped (3 animals per group): Saline (NS) group, rhMK groups injected with various dosages at 10, 33, 100, 300, 900 μg/kg. Rats were injected with saline or rhMK (175 μg/kg) daily for a week. Rabbits were injected with saline or rhMK (92.5 μg/kg) daily for two week. Histological observation and evaluation. The knee joint tissues of all mice and rats were fixed in 10% (v/v) formalin for 1 day, the tissues of rabbits were fixed for 2 days. The fixed tissues were subjected to demineralization in liquid (7% AlCl3.6H2O, 5% methanoic acid, 8.5% HCl) 4 days for mouse and rats issues, and 10 days for rabbit tissues. The demineralized tissues were subjected to dehydration by gradient ethanol, and treated for transparency by xylene, and embedded in wax. Tissue sections were prepared by the paraffin slicing machine (Laica), and stained with hemotoxylin/eosin or Safranine O/fast green staining. Slides were observed under microscope and analyzed. The thickness of cartilage tissues were measured by the vernier caliper on microscope. Three tissue sections from each sample were measured and analyzed statisticaly. The distance between surface of cartilage to subchondral tide line was measured at ½ position of femoral condyle to denote the thickness of knee-joint cartilage. The thickness of cartilage at central part of ears was measured to denote the thickness of ear elastic cartilage. The distance between out surface of annulus to nucleus of the intervertebral disc was measured to denote the thickness of thoracic intervertebral disc (T2-3). To verify the results of rhMk in mice, we performed the same experiments in vivo using commonly used laboratory animals, rat and rabbit. Rats were injected subcutaneously with rhMK at 175 μg/kg/day for one week, and rabbits was injected subcutaneously 92.5 ug/kg/day for two weeks. […] The injection dose of rhMK: mice was injected subcutaneously 300 μg/kg daily for a week; rats were injected 175 μg/kg daily for a week; and New Zealand rabbits was injected 92.5 μg/kg daily for two weeks. Three animals per group were analyzed."}, "[2]": {"system": "rat fibrochondrocyte and articular chondrocyte", "assay": "Phenotype of chondrocytes in monolayer culture (semi-quantitative PCR, collagen II immunohistochemical staining)", "format": "cell-based", "conditions": "passages P0-P2, Col2a1/collagen II", "experimental": "3. Culture of primary chondrocytes in monolayer. Three types of primary chondrocytes were suspended in DMEM medium containing 10% FBS, adjusted to 5×10^4 cells/ml, added to 6-well plate with 2 ml medium/well, and incubated in 37° C. at 5% CO2. Experiment was divided into two groups: control group and experimental group (with 3 μg/ml rhMK). Cell medium was changed every two days. When the cells grew to the confluence of 85% to 90%, the cells were collected by trypsin digestion, washed in PBS by centrifugation. The cells were resuspended in DMEM containing 10% FBS. Cell survival was monitored by trypan blue staining. Part of the cells were used for cell passage; some were for RNA extraction; some were cytospined onto a glass slide for later immunohistochemical staining and the slides were stored at −80° C. Primary cells or passage 0 (P0) were cultured for 7 days. The newly passaged cells were further cultured in a 6-well plate for 3 days which was then collected by trypsin-digestion and marked as passage P1. The cell amplification at each passage=total number of cells at output/total number of cells at initial input. 6. Immunohistochemical staining. […] RNA extraction and semi-quantitative PCR. […] PCR products were separated on 1.5% (w/v) agarose gels and quantified after staining with ethidium bromide in comparison with internal control gene expression of β-actin."}, "[3]": {"system": "dedifferentiated rat chondrocytes in high-density culture", "assay": "Redifferentiation of dedifferentiated chondrocytes in high-density culture (Col2a1 expression)", "format": "cell-based", "experimental": "5. High density culture of chondrocytes. The chondrocytes were harvested and suspended in DMEM containing 10% FBS. The cells were seeded at 4×10^5 cells/well into a 24-well plate, and experiment was divided into two groups: control group and experimental group (with 3 μg/m. 1 rhMK). When the cells reached confluence, they were cultured for additional 14 days. The culture medium was changed every two days. After the culture, some of the cells were collected for RNA extraction, and some were treated with trypsin and 0.2% type II collagenase at 37° C. for 30 min. The cells were cytospined onto glass slide and stored at −80° C. 6. Immunohistochemical staining. The cytospined glass slides covered with the cultured chondrocytes under various conditions were stored at −80° C. They were fixed in cold acetone for 10 min, treated sequentially in PBS for 5 min, in 3% H2O2 (in ddH2O) for 10 min at room temperature, and finally in ddH2O for 5 min. The slides were covered with 5% BSA (bovine serum albumine) for 20 min at room temperature. The excess serum was removed and the sections were covered with antibody against type II collagen (dilution 1:100) for 30 min at 37° C. […] RNA extraction and semi-quantitative PCR. […] PCR products were separated on 1.5% (w/v) agarose gels and quantified after staining with ethidium bromide in comparison with internal control gene expression of β-actin."}}}
{"molecule": "rhMK: recombinant human midkine mature protein (SEQ ID NO.1) expressed in E. coli and purified by ion-exchange chromatography (protein, listed as Homo sapiens) MKKKDKVKKGGPGSECAEWAWGPCTPSSKDCGVGFREGTCGAQTQRIRCRVPCNWKKEFGADCKYKFENWGACDGGTGTKVRQGTLKKARYNAQCQETIRVTKPCTPKTKAKAKAKKGKGKD", "values": [{"measurement": "Cartilage thickness, Ear", "setting": "[1]", "result": "605.4 ± 5.4", "unit": "µm"}, {"measurement": "Cartilage thickness, Femoral condyle", "setting": "[1]", "result": "612 ± 6.4", "unit": "µm"}, {"measurement": "Cartilage thickness, Intervertbral disc (T2-3)", "setting": "[1]", "result": "1520 ± 54", "unit": "µm"}, {"measurement": "Cartilage thickness, Trachea", "setting": "[1]", "result": "495 ± 6.5", "unit": "µm"}, {"measurement": "effect on the phenotype of fibrochondrocyte and articular chondrocyte", "setting": "[2]", "result": "no significant effect"}, {"measurement": "effect on Col2a1 re-expression", "setting": "[3]; P3 fibrochondrocytes cultured in high-density", "result": "no effect"}, {"measurement": "Col2a1 expression level in high-density cultures with rhMK", "setting": "[3]; P6 articular chondrocyte and P3 auricular chondrocyte", "result": "significantly inhibited"}]}
